# Reference: the DeepSol protein solubility set
# Test: soluble on expression in E. coli; label from the status in PepcDB or PDB records
row,Sequence,soluble on expression in E. coli
1,HEIPYDNTSLPAVTFMQPSAKKNLLIFGGYDSNLEELILWFSPLRNNGYNLIIFDGPGQGNMLFKKEKSHFIMNFEKPVAAVLDYFSLDRVAALGLSWGGFFVMRAAAFEKRIEKIIALDIFYQGLDALTIAMNPVLAFIFKTLVNFKCKTWIDVLLTHAMTRDLDLNWKIKRGYQLTGTKTPYDLIQNIKKHNMKGLGPLINQEVLLLAGEKDQYVPVKRLGQIKKELSNAAEIKTHLFTQESGGEQHCQAGSNLALLAIKDFLK,not soluble
2,HENPEGIIRIYASTTPGEHILPSIIKEYKSSYKNVDFEITITDSERCFKALDEGLADIAAVGYLKNKNYEYTIIGKDRLVLIVPPNHPLAEKGTAKLEDILKEDYIDREEGSGTREAFIKALNDKGYSIMDLNVVMRLGSHSAVI,not soluble
3,HGPAEISDLDRQIEQLRRCELIKESEVKALCAKAREILVEESNVQRVDSPVTVCGDIHGQFYDLKELFRVGGDVPETNYLFMGDFVDRGFYSVETFLLLLALKVRYPDRITLIRGNHESRQITQVYGFYDECLRKYGSVTVWRYCTEIFDYLSLSAIIDGKIFCVHGGLSPSIQTLDQIRTIDRKQEVPHDGPMCDLLWSDPEDTTGWGVSPRGAGYLFGSDVVAQFNAANDIDMICRAHQLVMEGYKWHFNETVLTVWSAPNYCYRCGNVAAILELDEHLQKDFIIFEAAPQETVRASSPSPL,soluble
4,HHHHHHFADLVIQVIDELKQFGVSVKTYGAKGDGVTDDIRAFEKAIESGFPVYVPYGTFMVSRGIKLPSNTVLTGAGKRNAVIRFMDSVGRGESLMYNENVTTGNENIFLSSFTLDGNNKRLGQGISGIGGSRESNLSIRACHNVYIRDIEAVDCTLHGIDITCGGLDYPYLGDGTTAPNPSENIWIENCEATGFGDDGITTHHSQYINILNCYSHDPRLTANCNGFEIDDGSRHVVLSNNRSKGCYGGIEIKAHGDAPAAYNISINGHMSVEDVRSYNFRHIGHHAATAPQSVSAKNIVASNLVSIRPNNKRGFQDNATPRVLAVSAYYGVVINGLTGYTDDPNLLTETVVSVQFRARNCSLNGVVLTGFSNSENGIYVIGGSRGGDAVNISNVTLNNSGRYGVSIGSGIENVSITNISGIGDGINSPVALVSTINSNPEISGLSSIGYPTVARVAGTDYNDGLTLFNGAFRASTTSSGKIHSEGFIMGSTSGCEASVSKSGVLTSSSSKTSSERSLIAGSSTSEAKGTYNTILGSLGAVADEQFAALISASQSRASGNHNLILSSYGINTTGSYKVNGGFEKINWELDSLNGRIKARDTVTGGNTWSDFAEYFESLGGQVIETGYLVTLEKGKIRKAEKGEKIIGVISETAGFVLGESSFEWQGAVLKNEFGGIIYEEVTTEDGVKFKRPLPNPDFDPNKNYIPRSQRREWHVVGLLGQIAVRIDETVKQGHSIDAVGGVATDGDNFIVQEITTPYTKEKGYGVAIVLVK,soluble
5,HHHHHHMQHLVLIGFMGSGKSSLAQELGLALKLEVLDTDMIISERVGLSVREIFEELGEDNFRMFEKNLIDELKTLKTPHVISTGGGIVMHENLKGLGTTFYLKMDFETLIKRLNQKEREKRPLLNNLTQAKELFEKRQALYEKNASFIIDARGGLNNSLKQVLQFIA,soluble
6,HHHHHHTDPALRAAQQTPLYEQHTLCGARMVDFHGWMMPLHYGSQIDEHHAVRTDAGMFDVSHMTIVDLRGSRTREFLRYLLANDVAKLTKSGKALYSGMLNASGGVIDDLIVYYFTEDFFRLVVNSATREKDLSWITQHAEPFGIEITVRDDLSMIAVQGPNAQAKAATLFNDAQRQAVEGMKPFFGVQAGDLFIATTGYTGEAGYEIALPNEKAADFWRALVEAGVKPCGLGARDTLRLEAGMNLYGQEMDETISPLAANMGWTIAWEPADRDFIGREALEVQREHGTEKLVGLVMTEKGVLRNELPVRFTDAQGNQHEGIITSGTFSPTLGYSIALARVPEGIGETAIVQIRNREMPVKVTKPVFVRNGKAVAGLCGR,soluble
7,HKCDITLQEIIKDLNSLTEQKTLCTELTVTDIFAASKNTTEKETFCRAATVLRQFYSHHEKDTRCLGATAQQFHRHKQLIRDLKRLDRNLWGLAGLNSCPVKEANQSTLENFLERLKTIMREKYSKCSS,soluble
8,HKFIRTAIDMDKNRAFSSRLRQSIKDYFDMPWYLTFADAERLSDLRDEALVLRDDEVTGQVPMEVEYEEFQQVNDELSERIGDMLKAHKEQGTPIDLSVVLRDYLAQHPYTHHFDLARIIVDQAVRLGYSESDYQAIQPDWKAINEFGAKVQANVIDRY,soluble
9,HMSNFTGLKVLVMDENGVSRMVTKGLLVHLGCEVTTVSSNEECLRVVSHEHKVVFMDVCMPGVENYQIALRIHEKFTKQRHQRPLLVALSGNTDKSTKEKCMSFGLDGVLLKPVSLDNIRDVLSDLLEPRVLYEGM,soluble
10,HPKLVSSTPAEGSEGAAPAKIELHFSENLVTQFSGAKLVMTAMPGMEHSPMAVKAAVSGGGDPKTMVITPASPLTAGTYKVDWRAVSSDTFPITGSVTFKVK,soluble
11,HQWQADEEAVRSATCSFSVKYLGCVEVFESRGMQVCEEALKVLRQSRRRPVRGLLHVSGDGLRVVDDETKGLIVDQTIEKVSFCAPDRNHERGFSYICRDGTTRRWMCHGFLACKDSGERLSHAVGCAFAVCLER,soluble
12,HRWITRPKFTHFDLHTLNWDLCLTQANHKSNLALEMLKMLLDSLPETVEKIQTALGQNDQATMLSTIHKLHGASCYCGVPTTQRLCQEIESALKRQTPVEDLEPEILELLDELTKVESAVKQVLSQLSAEITDDQKNGLL,soluble
13,HYHGIAANPADIQHEFCTSAQSDLNETQWLLAAKSLGLKAKVVRQPIKRLAMATLPALVWCDDGNHFILAKTDGEGEHAQFLIQDLVTNKSAVLSFAEFSNRYSGKLILVASRASVLGSLAKFDFTWFIPAVIK,not soluble
14,IARVVVHPDYRADGLGILAVRTAVEWIEERRVPEMRMRKHLVETIAQMARFNPFFEKAGFYYLWDTASGKPVLYKPLSEEAE,not soluble
15,ICMNVENEVTHTQLQFNHTDKYCGNIKNLISCKLYQHALTLIDSFRHDKSI,not soluble
16,IGAVNYSIGANIATNKNKITNLGGSDNIIQTSSYIVKYILKKGESIGSFYGFKTDGLYTQADIDAGHYYTLSGVVPNAGDIKFVPQRDIEYKQEITDEDRTILGKDVPDFTYGVNLSLQYKGFEFSMFGQGISGTKVAFDVYGVHPFYHGQDSPRKYHLKRWTEENPNPHAAYPRIYSASSVHTTYNRNFSDYHLFDSDYFRFKTLSLGYTVPSATVKNWGLQSLKVYVTGENLFTVRADKKMEDFDPETAGGVIYTLGTKSVAFGVNISF,not soluble
17,IIGQVDEISTTDLIEEEENAVLITAEGYAKRMSLEEFRVQSRGGVGVIGASVSPGDEIAVFRICNSTDRLLIFTNTGRAFWINAYEIPKMDRTARGTTLKRLIRLENGEKVVSALGVKDF,soluble
18,IIYKETKPEEYNLRNPVVTQDYTVSMSGGNDRGTYYASLGYNDSPGAPITTEYTRYNFTFNGSYKIADWLKTTSNATFSRANYVWLNNDWGTEADYFGRVMSSPPTVRFEDEDGNSTLGPSPGDGNQTYVARSYDQDNERTKLTLMQSVEANLFKGLVLRASASWYYFHTVEENMRKDYETVPGQWDRTRSTSASYSRQFSQTYNAVLDYTTTFATSHNLNVMLGSEFYDQYNNGFSASGFGASTDDFKKLGLTDAGEGKRSIDSSHSRYRILSYFGRLNYDYEGKYLFSGVFRYDGYSSLLGKNRWGFFPGVSGGWVFTKEDFVKESLPFLYYGKLRASYGLNGNASGIGPYTLQGSYNSNKYHGNNGFLIGALPNPSLRWEKTASFDIGLNVGLLDGRLNLDIDYYNRLTSDKYADLTLPSTTGFSSIRNNNGKLRNRGIELQLSGKIMETRDFTWDASLNITYNKNKIIALPYNKEPRNRQEGQQVYTGRKIANPETGVFEDEKVWVGGFQEGMEYGVLVGYQAEGIYQSMDDIPGDLVVKSGNAQGKYQYGPDAWKRLSAAEQAKGVEIKPGDMKWKDVNGDGMIDQYDQVVIGNTTPRWFGGFNTTMSWKGLSLYARFDFALDYWVYDNQTPWLLGCMQGTYNTTKDVFNTWNESNPNAKYPRYVYGDQLGTANYNRTSTLFASKGNYLGVRELSLSYTLPQELSKKLYMQKLQFSITGQNLGYLTSARTVSPEISSGYPLPRTVILGVNVTF,not soluble
19,ILGPHHLDEYVRVWAEYDPAACGRIHYKDMYSLLRVISPPLGLGKKCPHRVACKRLLRMDLPVADDNTVHFNSTLMALIRTALDIKIAKGGADKQQMDAELRKEMMAIWPNLSQKTLDLLVTPHKSTDLTVGKIYAAMMIMEYYRQSKAKKLQAMREEQDRTPLMFQRMEPPSPTQEGGPGQNALPSTQLDPGGALMAHESGLKESPSWVTQRAQEMFQKTGTWSPE,not soluble
20,INDPAKSAAPYHDEFPLFRSANMASPDKLSTGIGFHSFRIPAVVRTTTGRILAFAEGRRHTNQDFGDINLVYKRTKTTANNGASPSDWEPLREVVGSGAGTWGNPTPVVDDDNTIYLFLSWNGATYSQNGKDVLPDGTVTKKIDSTWEGRRHLYLTESRDDGNTWSKPVDLTKELTPDGWAWDAVGPGNGIRLTTGELVIPAMGRNIIGRGAPGNRTWSVQRLSGAGAEGTIVQTPDGKLYRNDRPSQKGYRMVARGTLEGFGAFAPDAGLPDPACQGSVLRYNSDAPARTIFLNSASGTSRRAMRVRISYDADAKKFNYGRKLEDAKVSGAGHEGGYSSMTKTGDYKIGALVESDFFNDGTGKNSYRAIIWRRFNLSWILNGPNN,soluble
21,INQYNQKKSQEYTDMQLLLQKESDFAQYYEMILSQSENQSILIHDIKKHLQSIKLLNEKNDSDKINAYIQQLLESSDLKETSKICDNEMLNAILCRYQRQCNEKHIVFHTDIRSDTVQNIYQHDLTSLFCNLLDNALESADNIPDSFIELTVEKKENSPFIIIILINSCRSTPVYDQDGLPVSHKANKGRHGFGIKSIKKVVKQYHGNLQMYYDNDSGTFHTIITLKQ,not soluble
22,INYRCPKRVITLINNIRKGDDQNVQVPKEDAIDGFVRLFIVDSNTTDKLELENKIRFQMAMLTHDEDWNIAEEVKTLTLEHDMAASRGGFDEFLLPLSSVSSLRDAALNGTSKNINFITSTLLPFIDAVEKDDSFEVARIIKSGSLLISDSNQSFLLNPIGTLKDIDSNVVEFKKILVNGKVTLHNVLSTIQKFELLSLPDELLVYLSDIEQGEPNEPESDTKLLSDVDKAWGLALNSSIGHVKNYAKYVNETLGYATHQGVKGLEYKRVMAVLDDKFKGFLFDYEKLFGAKDLTKKDIENEDLGKDSALSRTRRLFYVICSRAEQSLAVVAYSNDPIAIEKTAIESEWFSKDEIVLI,not soluble
